Measured values from US20080026996A1, “Selective Vpac2 Receptor Reptide Agonists” (ELI LILLY AND COMPANY, priority 2004, published 2008).
Where no end group is shown, it is not given here. [ ]: non-standard residue; d: D form. The star is where a group is joined. Orn = NCCC[C@H](N)C(=O)O; Hexanoyl = CCCCCC(=O)*; Aib = CC(C)(N)C(=O)O

biological target: T1, rat VPAC1 receptor (rat, UniProt P30083 31-459); assay: cell-based or functional assay
T1 sequence (looked up): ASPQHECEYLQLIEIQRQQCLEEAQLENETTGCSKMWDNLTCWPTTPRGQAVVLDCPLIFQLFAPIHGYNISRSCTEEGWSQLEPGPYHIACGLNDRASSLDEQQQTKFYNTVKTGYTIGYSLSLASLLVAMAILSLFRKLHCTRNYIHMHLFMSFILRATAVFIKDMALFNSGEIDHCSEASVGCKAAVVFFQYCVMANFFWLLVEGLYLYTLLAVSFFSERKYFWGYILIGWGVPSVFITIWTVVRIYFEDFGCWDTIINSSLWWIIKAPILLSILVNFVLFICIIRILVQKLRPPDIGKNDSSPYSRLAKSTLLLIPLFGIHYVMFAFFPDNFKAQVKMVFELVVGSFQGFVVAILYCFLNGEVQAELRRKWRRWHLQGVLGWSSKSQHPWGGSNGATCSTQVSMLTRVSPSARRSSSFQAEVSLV

| Binder | EC50 cAMP, DiscoveRx [nM] |
| --- | --- |
| Hexanoyl-HSDAVFTDNYTRLRKQVAAKKYLQSIKQKGGPSSGAPPPS [P270] | 0.67 |
| Hexanoyl-HSDAVFTDNYTRLR[Aib]QVAA[Aib][Orn]YLQSIKNKRYGGPSSGAPPPS (ends and bridges not checked) [P342] | 2.39 |
| Hexanoyl-HSDAVFTDNYTR[Aib]R[Aib]QVAA[Aib]KYLQSIKNKRYGGPSSGAPPPS (ends and bridges not checked) [P346] | 3.02 |
| Hexanoyl-HSDAVFTDNYTRLRKQVAAKKYLQTIKNKRYGGPSSGAPPPS [P115] | 0.95 |
| Hexanoyl-HGEGTFTDNYTRLRKQVAAKKYLQSIKNKRYGGPSSGAPPPS [P222] | 43.9 |
| Hexanoyl-HSDAVFTDNYTRLRKQVAAKKYLQSIKNKRYGGPSSGAPPPC [P120] | 0.42 |
| Hexanoyl-HSDAVFTDNYTRLRKQVAAKKYLQSIKNKKGGPSSGAPPPS [P121] | 0.66 |
| Hexanoyl-HSDAVFTDNYTRLRKQMAAQKYLNQLKKGGPSSGAPPPS [P143] | 3.81 |
| Hexanoyl-HSDAVFTDNYTRL[Aib]KQLAAK[Aib]YLQSIKNKRYGGPSSGAPPPS (ends and bridges not checked) [P241] | 61.1 |
| Hexanoyl-HSDAVFTDNYTRLR[Aib]QLAA[Aib]KYLQSIKNKRYGGPSSGAPPPS (ends and bridges not checked) [P291] | 1.12 |
| Hexanoyl-HSDAVFTDNYTRLRKQVAAKKYLQSIKNGGPSSGAPPPS [P154] | 0.85 |
| Hexanoyl-HSDAVFTDNYTRLQKQVAAK[Aib]YLQSIKNKRYGGPSSGAPPPS (ends and bridges not checked) [P251] | 212 |
| HSDAVFTDNYTXLRXQVAAXKYLQSIKNKRYGGPSSGAPPPS (N-terminal hexanoyl (C6); Orn at 12; Aib at 15, 20) [P344] | 1.56 |
| MHSDAVFTDNYTRLLAKLALQKYLQSIKNKRYGGPSSGAPPPS (N-terminal methionine added (M-)) [P140] | 5.81 |

biological target: T2, rat VPAC2 receptor (rat, UniProt P35000 23-437); assay: cell-based or functional assay
T2 sequence (looked up): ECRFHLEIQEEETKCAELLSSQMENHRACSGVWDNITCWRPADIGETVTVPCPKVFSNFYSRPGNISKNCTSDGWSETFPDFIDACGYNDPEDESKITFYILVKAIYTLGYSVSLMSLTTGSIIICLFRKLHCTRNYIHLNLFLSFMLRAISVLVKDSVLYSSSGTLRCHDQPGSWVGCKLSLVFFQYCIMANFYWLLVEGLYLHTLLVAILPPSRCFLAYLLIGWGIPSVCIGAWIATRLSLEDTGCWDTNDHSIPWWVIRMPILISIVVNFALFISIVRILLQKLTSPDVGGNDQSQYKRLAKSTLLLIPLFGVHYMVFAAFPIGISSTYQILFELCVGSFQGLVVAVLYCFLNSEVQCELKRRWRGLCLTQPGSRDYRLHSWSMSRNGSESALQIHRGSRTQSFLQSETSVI

| Binder | EC50 cAMP, DiscoveRx [nM] |
| --- | --- |
| HSDAVFTDNYTXLRXQVAAXKYLQSIXXGGPSSGAPPPS (N-terminal hexanoyl (C6); Orn at 12; Aib at 15, 20; hR at 27, 28) [P335] | 0.05 |
| HSDAVFTDNYTXLRXQVAAXKYLQSIXNXGGPSSGAPPPS (N-terminal hexanoyl (C6); hR at 12, 27, 29; Aib at 15, 20) [P329] | 0.15 |
| Hexanoyl-HSDAVFTDNYTRLRKQVAAQKYLQSIKNKRYGGPSSGAPPPS [P150] | 0.1 |
| Hexanoyl-HSDAVFTDNYTRLRQQVAAKKYLQSIKNKRYGGPSSGAPPPS [P177] | 0.1 |
| Hexanoyl-HSDAVFTDNYTRLLAKVAAKKYLQSIKNKRYGGPSSGAPPPS [P135] | 0.05 |
| Hexanoyl-HSDAVFTDNYTRLQKQVAAKKYLQSIKNKRYGGPSSGAPPPS [P172] | 0.11 |
| Hexanoyl-HGEGTFTDNYTRLRKQVAAKKYLQSIKNKRYGGPSSGAPPPS [P222] | 34.9 |
| Hexanoyl-HSDAVFTDNYTRLR[Aib]QVAAKKYLQSIKNKRYGGPSSGAPPPS (ends and bridges not checked) [P168] | 0.05 |
| Hexanoyl-HSDAVFTDNYTRLRKQVAAK[Aib]YLQSIKNKRYGGPSSGAPPPS (ends and bridges not checked) [P170] | 0.15 |

biological target: T3, human PAC1 receptor (human, UniProt P41586 21-468); assay: cell-based or functional assay
T3 sequence (looked up): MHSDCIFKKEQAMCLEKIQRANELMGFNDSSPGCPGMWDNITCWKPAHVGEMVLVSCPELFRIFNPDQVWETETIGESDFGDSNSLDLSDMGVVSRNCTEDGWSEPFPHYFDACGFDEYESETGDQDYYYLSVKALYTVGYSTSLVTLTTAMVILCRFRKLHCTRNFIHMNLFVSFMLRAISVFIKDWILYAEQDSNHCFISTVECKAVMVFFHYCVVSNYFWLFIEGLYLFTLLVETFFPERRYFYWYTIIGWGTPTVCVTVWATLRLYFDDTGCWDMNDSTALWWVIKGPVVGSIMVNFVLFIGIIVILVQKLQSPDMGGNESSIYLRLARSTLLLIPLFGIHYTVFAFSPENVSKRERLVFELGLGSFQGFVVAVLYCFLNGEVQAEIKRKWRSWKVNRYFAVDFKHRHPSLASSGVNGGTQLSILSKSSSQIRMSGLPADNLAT

| Binder | EC50 cAMP, DiscoveRx [nM] |
| --- | --- |
| HSDAWFTDNYTRLRKQVAAKKYLQSIKNKRYGGPSSGAPPPS [P69] | 104 |
| HSDAVFTDNYTRLRKQVAAKKYLQSIQNKRYGGPSSGAPPPS [P74] | 145 |
| HSDAYFTDNYTRLRKQVAAKKYLQSIKNKRYGGPSSGAPPPS [P70] | 20.7 |
| HSDAVFTDNYTRLRKQVAAKKYLQSIKNKIYGGPSSGAPPPS [P76] | 15.9 |
| HSDAVFTDNYTRLRKQVAAKKYLQSIKNNRYGGPSSGAPPPS [P75] | 13.4 |

biological target: T4, human VPAC2 receptor (human, UniProt P41587 24-438); assay: cell-based or functional assay
T4 sequence (looked up): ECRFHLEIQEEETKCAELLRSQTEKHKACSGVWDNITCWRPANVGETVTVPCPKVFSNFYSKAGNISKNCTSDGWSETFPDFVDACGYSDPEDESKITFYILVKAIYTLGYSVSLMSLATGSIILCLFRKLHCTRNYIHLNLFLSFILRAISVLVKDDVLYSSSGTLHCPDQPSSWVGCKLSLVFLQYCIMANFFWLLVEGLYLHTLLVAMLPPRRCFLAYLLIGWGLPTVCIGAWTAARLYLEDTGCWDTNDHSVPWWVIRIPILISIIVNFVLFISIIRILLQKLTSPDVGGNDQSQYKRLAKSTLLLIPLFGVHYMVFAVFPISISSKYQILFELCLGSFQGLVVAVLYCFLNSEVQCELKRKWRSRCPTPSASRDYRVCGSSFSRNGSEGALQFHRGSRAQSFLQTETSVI

| Binder | EC50 cAMP, Alpha Screen [nM] | EC50 cAMP, DiscoveRx [nM] |
| --- | --- | --- |
| Hexanoyl-HSDAVFTDNYTRLRKQVAAKKYLQSIKQKGGPSSGAPPPS [P270] | 0.13 | – |
| Hexanoyl-HSDAVFTDNYTRLR[Aib]QVAA[Aib][Orn]YLQSIKNKRYGGPSSGAPPPS (ends and bridges not checked) [P342] | 0.21 | – |
| Hexanoyl-HSDAVFTDNYTR[Aib]R[Aib]QVAA[Aib]KYLQSIKNKRYGGPSSGAPPPS (ends and bridges not checked) [P346] | 0.23 | – |
| HSDAVFTDNYTXLRXQVAAXKYLQSIXXGGPSSGAPPPS (N-terminal hexanoyl (C6); Orn at 12; Aib at 15, 20; hR at 27, 28) [P335] | 0.22 | – |
| Hexanoyl-HSDAVFTDNYTRLRKQVAAKKYLQTIKNKRYGGPSSGAPPPS [P115] | 0.2 | – |
| Hexanoyl-HSDAVFTDNYTRLRKQVAAQKYLQSIKNKRYGGPSSGAPPPS [P150] | 0.18 | – |
| Hexanoyl-HSDAVFTDNYTRLRQQVAAKKYLQSIKNKRYGGPSSGAPPPS [P177] | 0.21 | – |
| Hexanoyl-HSDAVFTDNYTRLLAKVAAKKYLQSIKNKRYGGPSSGAPPPS [P135] | 0.18 | – |
| Hexanoyl-HSDAVFTDNYTRLQKQVAAKKYLQSIKNKRYGGPSSGAPPPS [P172] | 0.29 | – |
| Hexanoyl-HGEGTFTDNYTRLRKQVAAKKYLQSIKNKRYGGPSSGAPPPS [P222] | 0.51 | – |
| Hexanoyl-HSDAVFTDNYTRLR[Aib]QVAAKKYLQSIKNKRYGGPSSGAPPPS (ends and bridges not checked) [P168] | 0.27 | – |
| Hexanoyl-HSDAVFTDNYTRLRKQVAAKKYLQSIKNKKGGPSSGAPPPS [P121] | 0.1 | – |
| Hexanoyl-HSDAVFTDNYTRLRKQMAAQKYLNQLKKGGPSSGAPPPS [P143] | 0.1 | – |
| Hexanoyl-HSDAVFTDNYTRL[Aib]KQLAAK[Aib]YLQSIKNKRYGGPSSGAPPPS (ends and bridges not checked) [P241] | 2.17 | – |
| Hexanoyl-HSDAVFTDNYTRLR[Aib]QLAA[Aib]KYLQSIKNKRYGGPSSGAPPPS (ends and bridges not checked) [P291] | 0.36 | – |
| Hexanoyl-HSDAVFTDNYTRLRKQVAAKKYLQSIKNGGPSSGAPPPS [P154] | 0.18 | – |
| Hexanoyl-HSDAVFTDNYTRLRKQVAAK[Aib]YLQSIKNKRYGGPSSGAPPPS (ends and bridges not checked) [P170] | 0.18 | – |
| Hexanoyl-HSDAVFTDNYTRLQKQVAAK[Aib]YLQSIKNKRYGGPSSGAPPPS (ends and bridges not checked) [P251] | 0.92 | – |
| HSDAVFTDNYTXLRXQVAAXKYLQSIKNKRYGGPSSGAPPPS (N-terminal hexanoyl (C6); Orn at 12; Aib at 15, 20) [P344] | 0.13 | – |
| HSDAWFTDNYTRLRKQVAAKKYLQSIKNKRYGGPSSGAPPPS [P69] | – | 6.39 |
| HSDAVFTDNYTRLRKQVAAKKYLQSIQNKRYGGPSSGAPPPS [P74] | – | 2.72 |
| HSDAYFTDNYTRLRKQVAAKKYLQSIKNKRYGGPSSGAPPPS [P70] | – | 4.89 |
| HSDAVFTDNYTRLRKQVAAKKYLQSIKNKIYGGPSSGAPPPS [P76] | – | 3.88 |
| HSDAVFTDNYTRLRKQVAAKKYLQSIKNNRYGGPSSGAPPPS [P75] | – | 3.44 |
| MHSDAVFTDNYTRLLAKLALQKYLQSIKNKRYGGPSSGAPPPS (N-terminal methionine added (M-)) [P140] | 0.07 | – |

biological target: T5, human VPAC1 receptor (human, UniProt P32241 31-457); assay: cell-based or functional assay
T5 sequence (looked up): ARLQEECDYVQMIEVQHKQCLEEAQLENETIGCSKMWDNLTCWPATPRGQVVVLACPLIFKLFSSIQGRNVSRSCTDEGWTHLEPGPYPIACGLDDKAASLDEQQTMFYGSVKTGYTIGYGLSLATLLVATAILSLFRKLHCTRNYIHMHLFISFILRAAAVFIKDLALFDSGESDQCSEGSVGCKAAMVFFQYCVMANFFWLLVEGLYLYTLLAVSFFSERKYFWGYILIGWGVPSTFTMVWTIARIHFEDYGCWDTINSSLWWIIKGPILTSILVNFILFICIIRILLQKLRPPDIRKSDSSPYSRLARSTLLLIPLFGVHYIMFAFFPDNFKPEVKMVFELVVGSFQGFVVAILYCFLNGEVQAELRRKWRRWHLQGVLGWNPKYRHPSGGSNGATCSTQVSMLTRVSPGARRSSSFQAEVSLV

| Binder | EC50 cAMP, DiscoveRx [nM] |
| --- | --- |
| HSDAWFTDNYTRLRKQVAAKKYLQSIKNKRYGGPSSGAPPPS [P69] | 8.48 |
| HSDAVFTDNYTRLRKQVAAKKYLQSIQNKRYGGPSSGAPPPS [P74] | 0.4 |
| HSDAYFTDNYTRLRKQVAAKKYLQSIKNKRYGGPSSGAPPPS [P70] | 27.4 |
| HSDAVFTDNYTRLRKQVAAKKYLQSIKNKIYGGPSSGAPPPS [P76] | 0.8 |
| HSDAVFTDNYTRLRKQVAAKKYLQSIKNNRYGGPSSGAPPPS [P75] | 0.65 |
